From article PMC6829457, “Light-Regulation of Tryptophan Synthase by Combining Protein Design and Enzymology” (International Journal of Molecular Sciences, 2019)

Target: T1, wild-type TrpB, beta subunit of tryptophan synthase from Salmonella typhimurium (Salmonella typhimurium, UniProt P0A2K1 1-397)
T1 construct: TrpB (tryptophan synthase beta chain), Salmonella typhimurium; it carries pyridoxal phosphate as internal aldimine on bK87
T1 sequence: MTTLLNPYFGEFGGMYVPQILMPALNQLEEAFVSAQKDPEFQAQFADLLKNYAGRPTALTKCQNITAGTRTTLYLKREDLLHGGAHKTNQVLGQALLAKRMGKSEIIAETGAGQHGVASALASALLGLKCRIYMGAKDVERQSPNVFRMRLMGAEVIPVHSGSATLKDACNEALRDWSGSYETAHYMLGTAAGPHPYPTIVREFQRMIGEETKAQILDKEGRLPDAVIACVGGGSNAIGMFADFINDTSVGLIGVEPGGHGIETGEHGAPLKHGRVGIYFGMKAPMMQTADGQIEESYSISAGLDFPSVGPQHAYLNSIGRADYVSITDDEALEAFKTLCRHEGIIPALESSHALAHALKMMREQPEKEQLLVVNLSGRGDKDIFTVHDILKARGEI
Assay: SEC
Settings: both partners purified

B1: wild-type TrpA, alpha subunit of tryptophan synthase from Salmonella typhimurium (enzyme, UniProt P00929 1-268, looked up)
chain: MERYENLFAQLNDRREGAFVPFVTLGDPGIEQSLKIIDTLIDAGADALELGVPFSDPLADGPTIQNANLRAFAAGVTPAQCFEMLALIREKHPTIPIGLLMYANLVFNNGIDAFYARCEQVGVDSVLVADVPVEESAPFRQAALRHNIAPIFICPPNADDDLLRQVASYGRGYTYLLSRSGVTGAENRGALPLHHLIEKLKEYHAAPALQGFGISSPEQVSAAVRAGAAGAISGSAIVKIIEKNLASPKQMLAELRSFVSAMKAASRA
notes: TrpA (tryptophan synthase alpha chain), Salmonella typhimurium
- binding result: binds
